Measured values: the supplement of paper PMC7125110
± gives the standard error. For some assays here: Fewer inactive variants are shown than the library holds.

B1: glmS ribozyme (parent)
chain: AUAAAAGCGCCAGAACUACAGAAAUGUAGUUGACGAGGAGGAGGUUUAUCGAAUUUUCGGCGGAUGCCUCCAAA

Columns and labels:
Settings in all cases: with glucosamine-6-phosphate
glucosamine-6-phosphate [1] = variants of: B1; experiment: kcat; higher = faster cleavage; RNA array
Outline: (§1)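 Barcoded glmS ribozyme variants on sequenced MiSeq chips were transcribed in situ by E. coli RNA polymerase and tracked through a hybridised Cy3 probe at 37 °C. Glucosamine-6-phosphate (40 μM to 10 mM) in HEPES/KCl/Mg(OAc)2 buffer was flowed in, and tiles were imaged over ~14 h. Signals were normalised to baseline and to non-cleaving reference variants; per-tile medians were fit to one- or two-exponential decays to give kobs. kcat and KM came from weighted Michaelis–Menten fits across concentrations.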

glucosamine-6-phosphate [2] = variants of: B1; experiment: KM; higher = weaker cofactor use; RNA array
Outline: as §1

glucosamine-6-phosphate [3] = variants of: B1; experiment: self-cleavage kobs at 40 uM GlcN6P; higher = faster cleavage; RNA array
Outline: as §1

glucosamine-6-phosphate [4] = variants of: B1; experiment: self-cleavage kobs at 160 uM GlcN6P; higher = faster cleavage; RNA array
Outline: as §1

glucosamine-6-phosphate [5] = variants of: B1; experiment: self-cleavage kobs at 640 uM GlcN6P; higher = faster cleavage; RNA array
Outline: as §1

glucosamine-6-phosphate [6] = variants of: B1; experiment: self-cleavage kobs at 2500 uM GlcN6P; higher = faster cleavage; RNA array
Outline: as §1

glucosamine-6-phosphate [7] = variants of: B1; experiment: self-cleavage kobs at 10000 uM GlcN6P; higher = faster cleavage; RNA array
Outline: as §1

Row | Variant | kcat (glucosamine-6-phosphate [1]) [s⁻¹] | KM (glucosamine-6-phosphate [2]) [µM] | self-cleavage kobs at 40 uM GlcN6P (glucosamine-6-phosphate [3]) [s⁻¹] | self-cleavage kobs at 160 uM GlcN6P (glucosamine-6-phosphate [4]) [s⁻¹] | self-cleavage kobs at 640 uM GlcN6P (glucosamine-6-phosphate [5]) [s⁻¹] | self-cleavage kobs at 2500 uM GlcN6P (glucosamine-6-phosphate [6]) [s⁻¹] | self-cleavage kobs at 10000 uM GlcN6P (glucosamine-6-phosphate [7]) [s⁻¹]
1 | A6U C68G | 1.22e-05 ± 3e-06 |  |  |  |  |  | 
2 | A12C U56A | 0.0197 ± 0.004 | 4980 ± 1400 | 0.00021 ± 2.5e-05 | 0.000528 ± 7.5e-05 | 0.00217 ± 0.00031 | 0.0059 ± 0.00083 | 0.0135 ± 0.0011
3 | C50U A53G | 6.82e-05 ± 1.3e-06 | 642 ± 54 |  |  | 3.45e-05 ± 1.6e-05 | 5.41e-05 ± 1.5e-05 | 6.42e-05 ± 1.5e-05
4 | A15U U57A | 4.21e-05 ± 3.2e-07 | 2340 ± 76 |  |  |  |  | 3.41e-05 ± 5.8e-06
5 | A42C U57G | < 1e-05 |  | < 1e-05 | < 1e-05 |  |  | 
6 | U56A C68G | 7.31e-05 ± 8.9e-06 |  |  | 6.33e-05 ± 1.2e-05 | 0.00011 ± 1.5e-05 | 6.61e-05 ± 7.6e-06 | 6.94e-05 ± 7.3e-06
7 | U56C C58U | 6.39e-05 ± 2.4e-06 | 4240 ± 440 |  |  |  | 2.41e-05 ± 1.1e-05 | 4.48e-05 ± 8.5e-06
8 | C16G C68A | 2.15e-05 ± 6.1e-06 |  |  |  |  |  | 
9 | U30A C68U | 0.000818 ± 0.00016 | 1730 ± 610 | 3.27e-05 ± 1.2e-05 | 9.37e-05 ± 2e-05 | 0.000204 ± 2.7e-05 | 0.000417 ± 6.6e-05 | 0.000776 ± 9.4e-05
10 | U49A U65G | < 1e-05 |  |  | < 1e-05 |  |  | < 1e-05
11 | A15G G60U | < 1e-05 |  | < 1e-05 | < 1e-05 | < 1e-05 |  | 
12 | A53U U69A | 0.000102 ± 1.2e-05 |  | 4.28e-05 ± 1.3e-05 | 5.84e-05 ± 1.7e-05 | 0.000146 ± 3.1e-05 | 0.000103 ± 1.7e-05 | 9.48e-05 ± 1.3e-05
13 | A6U U47G | 5.58e-05 ± 2.6e-06 | 564 ± 180 |  |  |  | 4.79e-05 ± 7.2e-06 | 5.16e-05 ± 6.8e-06
14 | A36G A53U | 1.3e-05 ± 2.6e-06 |  | < 1e-05 | < 1e-05 |  |  | 
15 | G40U U65C | 6.53e-05 ± 8.5e-06 |  |  |  |  | 6.94e-05 ± 1.5e-05 | 5.76e-05 ± 1.1e-05
16 | C16A C50U | < 1e-05 |  | < 1e-05 |  |  |  | 
17 | U49A G66C | < 1e-05 |  |  |  | < 1e-05 |  | 
18 | G21A C58G U69G C71U | 4e-05 ± 1e-05 |  |  | 5.48e-05 ± 1.6e-05 | 4.19e-05 ± 1.7e-05 | 3.42e-05 ± 1.6e-05 | 
19 | U45A A48G | 0.000299 ± 7.2e-05 |  |  |  | 8.14e-05 ± 1.3e-05 | 0.00033 ± 4.4e-05 | 0.00024 ± 2.6e-05
20 | A14G U31C C71A | 0.00296 ± 0.00085 | 1430 ± 590 | 0.000143 ± 6.1e-05 | 0.000251 ± 7.7e-05 |  | 0.00227 ± 0.00096 | 0.00241 ± 0.00085

Row | Variant | kcat (glucosamine-6-phosphate [1]) [s⁻¹] | KM (glucosamine-6-phosphate [2]) [µM] | self-cleavage kobs at 40 uM GlcN6P (glucosamine-6-phosphate [3]) [s⁻¹] | self-cleavage kobs at 160 uM GlcN6P (glucosamine-6-phosphate [4]) [s⁻¹] | self-cleavage kobs at 640 uM GlcN6P (glucosamine-6-phosphate [5]) [s⁻¹] | self-cleavage kobs at 2500 uM GlcN6P (glucosamine-6-phosphate [6]) [s⁻¹] | self-cleavage kobs at 10000 uM GlcN6P (glucosamine-6-phosphate [7]) [s⁻¹]
21 | C10G C11U C67G | 3.06e-05 ± 8.7e-06 |  |  |  | 5.14e-05 ± 2.4e-05 |  | 
22 | G66U C71G | 8.21e-05 ± 2.6e-06 | 2320 ± 240 |  |  |  | 4.34e-05 ± 1.2e-05 | 6.65e-05 ± 1.1e-05
23 | G40A U57C | 3.56e-05 ± 5.2e-06 |  |  |  |  | 4.59e-05 ± 2e-05 | 3.15e-05 ± 1.2e-05
24 | A33U U56A | 3.49e-05 ± 1.6e-05 |  |  |  |  |  | 
25 | G41U U49G | 3.94e-05 ± 6e-06 |  | < 1e-05 |  |  |  | 3.38e-05 ± 1e-05
26 | U30G C68A | 2.01e-05 ± 5.2e-06 |  |  |  |  |  | 
27 | U57C C71U | 0.000136 ± 1.9e-05 |  | < 1e-05 |  | 9.57e-05 ± 1.9e-05 | 8.71e-05 ± 2.6e-05 | 0.000139 ± 1.6e-05
28 | U54C C68G | 8.49e-05 ± 1.1e-05 |  |  |  | 4.44e-05 ± 1e-05 | 9.2e-05 ± 1.4e-05 | 7.49e-05 ± 1e-05
29 | G38U C61G | < 1e-05 |  |  | < 1e-05 |  |  | 
30 | A14G G44U | 0.00141 ± 0.00018 | 4650 ± 840 |  | 4.99e-05 ± 2e-05 | 0.000163 ± 2.5e-05 | 0.000558 ± 0.0001 | 0.000923 ± 0.00019
31 | A42C | 1.83e-05 ± 2.5e-07 | 5140 ± 190 |  |  |  |  | 1.21e-05 ± 1.4e-06
32 | G29U U54G | 0.00305 ± 0.00096 | 1760 ± 820 | 7.25e-05 ± 1.3e-05 | 0.000223 ± 4.1e-05 | 0.00114 ± 0.00016 | 0.0013 ± 0.00024 | 0.00321 ± 0.00046
33 | G37U C68G | 2.11e-05 ± 5e-06 |  |  |  |  |  | 
34 | A39G U54C | 0.0135 ± 0.004 | 759 ± 340 | 0.000807 ± 0.00031 | 0.00183 ± 0.0008 | 0.00774 ± 0.0024 | 0.00946 ± 0.0035 | 
35 | A52C G66C | 1.28e-05 ± 2.9e-06 |  | < 1e-05 |  | < 1e-05 |  | 
36 | G29A G66C | 6.73e-05 ± 1.1e-05 | 1940 ± 930 |  |  |  | 4.16e-05 ± 1.1e-05 | 5.41e-05 ± 1.4e-05
37 | G13C U30G | 3.93e-05 ± 3.7e-06 | 2100 ± 830 |  |  |  |  | 3.23e-05 ± 9.3e-06
38 | U49A C71A | < 1e-05 |  |  |  |  |  | 
39 | C58U C67A | 3.03e-05 ± 4.9e-06 |  | < 1e-05 |  |  |  | 3.07e-05 ± 7.8e-06
40 | A14U A36U | < 1e-05 |  |  | < 1e-05 |  | < 1e-05 | < 1e-05
